Measured values as given in paper PMC7271519, “The DISC1 R264Q variant increases affinity for the dopamine D2 receptor and increases GSK3 activity” (Molecular Brain, 2020).
Where a chain is given by its changes, count along the chain named. Names and notes keep the numbering of the source.

B1: GST-DISC1NT (human, wild type) (domain or fragment)
chain: MPGGGPQGAPAAAGGGGVSHRAGSRDCLPPAACFRRRRLARRPGYMRSSTGPGIGFLSPAVGTLFRFPGGVSGEESHHSESRARQCGLDSRGLLVRSPVSKSAAAPTVTSVRGTSAHFGIQLRGGTRLPDRLSWPCGPGSAGWQQEFAAMDSSETLDASWEAACSDGARRVRAAGSLPSAELSSNSCSPGCGPEVPPTPPGSHSAFTSSFSFIRLSLGSAGERGEAEGCPPSREAESHCQSPQEMGAKAASLDGPHEDPRCLSRPFSLLATRVSADLAQAARNSSRPERDMH
modifications: GST carrier omitted; limits not given, N-terminal head region taken from the UniProt feature 1-292
B2: GST-DISC1-NT R264Q (human) (domain or fragment)
chain: B1 chain with R264Q
modifications: GST carrier omitted; limits not given, N-terminal head region taken from the UniProt feature 1-292
B3: GST-DISC1NT (mouse, wild type) (domain or fragment)
chain: MQGGGPRGAPIHSPSHGADSGHGLPPAVAPQRRRLTRRPGYMRSTAGSGIGFLSPAVGMPHPSSAGLTGQQSQHSQSKAGQCGLDPGSHCQASLVGKPFLKSSLVPAVASEGHLHPAQRSMRKRPVHFAVHSKNDSRQSERLTGSFKPGDSGFWQELLSSDSFKSLAPSLDAPWNKGSRGLKTVKPLASPALNGPADIASLPGFQDTFTSSFSFIQLSLGAAGERGEAEGCLPSREAEPLHQRPQEMAAEASSSDRPHGDPRHLWTFSLHAAPGLADLAQVTRSSSRQSECGTV
modifications: GST carrier omitted; limits not given, N-terminal head region taken from the UniProt feature 1-294
B4: GST-Disc1-L100PNT (mouse) (domain or fragment)
chain: B3 chain with L100P
modifications: GST carrier omitted; limits not given, N-terminal head region taken from the UniProt feature 1-294

Columns and labels:
[1] = molecular target: T1, TAT-D2pep[K211-T225] peptide (UniProt P14416 211-225); assay: SPR; TAT-D2pep amine-coupled to carboxymethylated dextran chip (600 RU); human GST-DISC1NT or R264Q flowed at 0-4.0 uM; 25 °C; TBS-T (150 mM NaCl, 1 mM CaCl2, 1 mM MgCl2, 10 mM Tris pH 7.4, 0.005% P-20); 50 ul/min; equilibrium analysis; conditions: both partners purified
T1 construct: dopamine D2 receptor, residues K211-T225; also called D2 [K211-T225]

[2] = molecular target: T1, TAT-D2pep[K211-T225] peptide; assay: SPR; TAT-D2pep amine-coupled to carboxymethylated dextran chip; mouse GST-Disc1-L100PNT at 25-400 nM, GST-DISC1NT at 100 nM-1.6 uM; 25 °C; TBS-T pH 7.4; 50 ul/min; association 180 s, dissociation 300 s; KD from association and dissociation rates; conditions: both partners purified

Binder	Kd [1]	Kd [2]
B1	0.653 ± 0.006 µM	
B2	0.243 ± 0.003 µM	
B3		0.76 ± 0.02 µM
B4		0.1 ± 0.002 µM
